Tested on: [^3H]NECA-bound A2AR
Assay: Thermostability assay of detergent-solubilised receptor with [3H]NECA bound (ligand plus format)
Format: physicochemical, human
Protocol: […]. After solubilisation in DDM, A2AR was bound to Ni^2+-NTA resin, washed to reduce the DDM concentration and then eluted (see Methods). […]. An aliquot of E. coli cells (14 mL) was thawed on ice and resupended in 500 μL of buffer A [50 mM Tris–HCl (pH 7.4), 0.4 M NaCl, 250 μg/mL lysozyme (Sigma) and 1 mg/mL DNase I (Sigma), supplemented with complete ethylenediaminetetraacetic acid (EDTA)-free Protease inhibitor cocktail (Roche)] and incubated for 1 h at 4 °C. Samples were then sonicated for 1 min at 4 °C using a cup-horn sonicator. The receptors were solubilised by adding 1% DDM and incubated for 1 h at 4 °C. Insoluble material was removed by centrifugation (5 min, 13,000g, 4 °C). The solubilised receptors were partially purified with Ni-NTA agarose (Qiagen). Agarose beads (300 μL) pre-equilibrated in buffer A were added to 700 μL of solubilised receptor. […].
The sample was incubated for 45 min at 4 °C, then 30 min at the specified temperature and then 30 min at 4 °C. Receptor-bound and free radioligands were separated as previously described on mini gel-filtration columns.[26] Receptor-bound ligands were transferred to a 96-well plate (PerkinElmer) and mixed with 200 μL of Optiphase supermix (PerkinElmer). The bound ^3H-labeled ligand was determined using a 1450 Microbeta Trilux counter (1 min per sample).
For all the thermostabilisation studies carried out in our laboratory, the apparent Tm is the temperature for which 50% of the solubilised receptor remains folded after 30 min of incubation. The rate constant of the protein denaturation is a function of the temperature, and consequently, thermal denaturation of a protein can be compared to a chemical reaction for which the rate of the reaction is dependant on the temperature. Arrhenius established that any chemical reaction is temperature dependant. […]. The reference measurement representing the total binding activity of the sample A0 was considered to be measured at 4 °C. From the graphical representation t = Log10(t1/2) (Fig. 2c), we could extract a half-life for each construct at any temperature to define the improvement in stability of the various mutants compared to WT A2AR.

| Molecule | Apparent Tm in DDM, Single measurement [°C] |
| --- | --- |
| GL19: A2AR mutant L48A-V282A (protein, UniProt P29274 1-412, looked up, variant L48A V282A) Adenosine receptor A2a: MPIMGSSVYITVELAIAVLAILGNVLVCWAVWLNSNLQNVTNYFVVSAAAADIAVGVLAIPFAITISTGFCAACHGCLFIACFVLVLTQSSIFSLLAIAIDRYIAIRIPLRYNGLVTGTRAKGIIAICWVLSFAIGLTPMLGWNNCGQPKEGKNHSQGCGEGQVACLFEDVVPMNYMVYFNFFACVLVPLLLMLGVYLRIFLAARRQLKQMESQPLPGERARSTLQKEVHAAKSLAIIVGLFALCWLPLHIINCFTFFCPDCSHAPLWLMYLAIVLSHTNSAVNPFIYAYRIREFRQTFRKIIRSHVLRQQEPFKAAGTSARVLAAHGSDGEQVSLRLNGHPPGVWANGSAPHPERRPNGYALGLVSGGSAQESQGNTGLPDVELLSHELKGVCPEPPGLDDPLAQDGAGVS | 40 |
| GL24: A2AR mutant L48A-Q89A-F79A (protein, UniProt P29274 1-412, looked up, variant L48A Q89A F79A) Adenosine receptor A2a: MPIMGSSVYITVELAIAVLAILGNVLVCWAVWLNSNLQNVTNYFVVSAAAADIAVGVLAIPFAITISTGFCAACHGCLAIACFVLVLTASSIFSLLAIAIDRYIAIRIPLRYNGLVTGTRAKGIIAICWVLSFAIGLTPMLGWNNCGQPKEGKNHSQGCGEGQVACLFEDVVPMNYMVYFNFFACVLVPLLLMLGVYLRIFLAARRQLKQMESQPLPGERARSTLQKEVHAAKSLAIIVGLFALCWLPLHIINCFTFFCPDCSHAPLWLMYLAIVLSHTNSVVNPFIYAYRIREFRQTFRKIIRSHVLRQQEPFKAAGTSARVLAAHGSDGEQVSLRLNGHPPGVWANGSAPHPERRPNGYALGLVSGGSAQESQGNTGLPDVELLSHELKGVCPEPPGLDDPLAQDGAGVS | 46 |
| GL21: A2AR mutant L48A-Q89A-A54L (protein, UniProt P29274 1-412, looked up, variant L48A Q89A A54L) Adenosine receptor A2a: MPIMGSSVYITVELAIAVLAILGNVLVCWAVWLNSNLQNVTNYFVVSAAAADILVGVLAIPFAITISTGFCAACHGCLFIACFVLVLTASSIFSLLAIAIDRYIAIRIPLRYNGLVTGTRAKGIIAICWVLSFAIGLTPMLGWNNCGQPKEGKNHSQGCGEGQVACLFEDVVPMNYMVYFNFFACVLVPLLLMLGVYLRIFLAARRQLKQMESQPLPGERARSTLQKEVHAAKSLAIIVGLFALCWLPLHIINCFTFFCPDCSHAPLWLMYLAIVLSHTNSVVNPFIYAYRIREFRQTFRKIIRSHVLRQQEPFKAAGTSARVLAAHGSDGEQVSLRLNGHPPGVWANGSAPHPERRPNGYALGLVSGGSAQESQGNTGLPDVELLSHELKGVCPEPPGLDDPLAQDGAGVS | 46 |
| GL22: A2AR mutant L48A-Q89A-F62A (protein, UniProt P29274 1-412, looked up, variant L48A Q89A F62A) Adenosine receptor A2a: MPIMGSSVYITVELAIAVLAILGNVLVCWAVWLNSNLQNVTNYFVVSAAAADIAVGVLAIPAAITISTGFCAACHGCLFIACFVLVLTASSIFSLLAIAIDRYIAIRIPLRYNGLVTGTRAKGIIAICWVLSFAIGLTPMLGWNNCGQPKEGKNHSQGCGEGQVACLFEDVVPMNYMVYFNFFACVLVPLLLMLGVYLRIFLAARRQLKQMESQPLPGERARSTLQKEVHAAKSLAIIVGLFALCWLPLHIINCFTFFCPDCSHAPLWLMYLAIVLSHTNSVVNPFIYAYRIREFRQTFRKIIRSHVLRQQEPFKAAGTSARVLAAHGSDGEQVSLRLNGHPPGVWANGSAPHPERRPNGYALGLVSGGSAQESQGNTGLPDVELLSHELKGVCPEPPGLDDPLAQDGAGVS | 45.5 |
| GL20: A2AR mutant L48A-Q89A-V12A (protein, UniProt P29274 1-412, looked up, variant L48A Q89A V12A) Adenosine receptor A2a: MPIMGSSVYITAELAIAVLAILGNVLVCWAVWLNSNLQNVTNYFVVSAAAADIAVGVLAIPFAITISTGFCAACHGCLFIACFVLVLTASSIFSLLAIAIDRYIAIRIPLRYNGLVTGTRAKGIIAICWVLSFAIGLTPMLGWNNCGQPKEGKNHSQGCGEGQVACLFEDVVPMNYMVYFNFFACVLVPLLLMLGVYLRIFLAARRQLKQMESQPLPGERARSTLQKEVHAAKSLAIIVGLFALCWLPLHIINCFTFFCPDCSHAPLWLMYLAIVLSHTNSVVNPFIYAYRIREFRQTFRKIIRSHVLRQQEPFKAAGTSARVLAAHGSDGEQVSLRLNGHPPGVWANGSAPHPERRPNGYALGLVSGGSAQESQGNTGLPDVELLSHELKGVCPEPPGLDDPLAQDGAGVS | 46 |

From article PMC3145977, “Thermostabilisation of an Agonist-Bound Conformation of the Human Adenosine A2A Receptor” (Journal of Molecular Biology, 2011)
